Data published in publication PMC2733743.

Experiments:
[1] = biological target: WT cortactin stably expressed in MTLn3 cells (endogenous cortactin knocked down) (rat); assay: FRET or BRET
[2] = biological target: endogenous cortactin of MTLn3 cells (rat (endogenous in MTLn3)) (UniProt Q66HL2); assay: FRET or BRET

Chain of WT cortactin stably expressed in MTLn3 cells (endogenous cortactin knocked down) (rat) (Q66HL2 whole entry): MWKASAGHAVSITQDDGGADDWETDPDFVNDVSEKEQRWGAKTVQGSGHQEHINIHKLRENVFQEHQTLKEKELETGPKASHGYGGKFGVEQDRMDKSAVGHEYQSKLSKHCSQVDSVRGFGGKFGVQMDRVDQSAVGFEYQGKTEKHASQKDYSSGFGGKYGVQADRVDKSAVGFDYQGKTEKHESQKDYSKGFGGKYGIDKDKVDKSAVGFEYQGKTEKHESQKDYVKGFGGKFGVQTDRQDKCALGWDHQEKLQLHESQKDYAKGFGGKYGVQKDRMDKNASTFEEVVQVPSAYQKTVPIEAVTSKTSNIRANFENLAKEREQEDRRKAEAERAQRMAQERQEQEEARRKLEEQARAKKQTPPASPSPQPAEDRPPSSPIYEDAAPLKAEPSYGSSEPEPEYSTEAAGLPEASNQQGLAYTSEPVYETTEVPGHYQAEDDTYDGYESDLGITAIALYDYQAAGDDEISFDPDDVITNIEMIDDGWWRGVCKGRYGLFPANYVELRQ

FRET efficiency [1]: 4.2% | FRET efficiency [2]: 11.8%
Substance: endogenous cofilin of MTLn3 cells (from UniProt P45592 1-166) (natural protein)
